Laboratory results published in patent publication US20100278806A1, “Composition Containing Arazyme for the Prevention and Treatment of Arthritis” (Insect Biotech Co., Ltd., priority 2008, published 2010).

Legend:
[1] = system: Wistar-derived SPF female rats; experiment: Acute toxicity experiment of arazyme, single oral administration; format: in vivo
Experimental: 4 groups, each consisting of 4 Wistar-derived specific pathogen free (SPF) female rats (Orient Co., Ltd., Seoul, Korea), were bred in an animal laboratory under conditions of temperature 22° C.±3° C., humidity 55±10%, and illumination 12 L/12 D. After purchase, the rats were quarantined and adapted in the animal laboratory for 1 week. During the whole test period, 5 or less rats were accommodated in each polycarbonate cage (240 W×390 L×175 H mm). For individual identification, both skin mark using an oil marker and group distinction cards at each breeding box were used. Solid fodder for experimental animals (PMI Nutrition International, USA) was sterilized, and tap water was freely given by a water bottle.
Arazyme in the Examples was dissolved in sterilized water for injection at 0, 1250, 2500, and 5000 mg/kg, prepared at a dose of 10 ml/kg, and orally administered to the rats using zonde one. After 1 week adaptation, the rats were divided into 4 groups and arazyme was administered to 10 week-old rats at each concentration to observe general symptoms. Subsequently, an autopsy was performed after 24 hours in order to evaluate the toxicity of arazyme on actual organs.
After oral administration of arazyme into female rats, the behaviors, appearances, and functions of the animals were investigated in order to observe general symptoms exactly according to the administration of a test material and evaluate the toxicity.

[2] = system: joint cartilage of osteoarthritis-induced right knee; experiment: Histopathological observation of joint cartilage (H&E, toluidine blue, azan), osteoarthritis-induced rabbits; format: in vivo, NewZealand White Rabbits; details: autopsy at 12 weeks, optical microscope
Excerpt: (§1) It is known that not only repetitive joint damage but also a lesion similar to that of human degenerative osteoarthritis is induced in a rabbit model with knee meniscus removed. A method for tearing the cranial cruciate ligament is used as a method for inducing osteoarthritis in rabbits (Hulth A. et al., Acta Orthp Scand. 41:522-530, 1970). In the present experiment, the cranial cruciate ligament of a rabbit was torn to induce the instability of joints and simultaneously medial meniscus was removed to induce osteoarthritis.
The cranial cruciate ligaments of right knees of all the experimental animals were torn to induce the instability of joints and medial meniscuses were simultaneously removed to induce osteoarthritis. Sharm-operations were performed on the left knees to be used as a control against administration of a test material. Tear of cranial cruciate ligament and medial meniscus removal were performed as follows. The animals were fasted for 6 to 12 hours prior to the operation and only drinking water was supplied. Subsequently, an anesthetic of Xylazine (Rompun, Bayer Korea Ltd.) at 1.25 ml/6 mg/kg and Zoletil50 (Virbac) at 0.2 ml/10 mg/kg was intramuscularly injected to anesthetize the animals. […]
(§2) In order to induce osteoarthritis effectively, all the animals in the experimental group were subjected to a forced exercise task using a treadmill for 5 min every day from the day 4 after the induction surgery of osteoarthritis, and arthrography was performed on both knee joints at 4 weeks, 8 weeks, and 12 weeks after administration of the test material to measure the changes of joint surface. An autopsy was performed at 12 weeks after administration of the test material to conduct serologic tests of blood samples through collection of blood and control effects of the test material on osteoarthritis were assessed through a histopathological test. […]

[3] = system: joint cartilage of osteoarthritis-induced right knee; experiment: Visual observation of the changes of joint cartilage, osteoarthritis-induced rabbits; format: in vivo, NewZealand White Rabbits; details: autopsy at 12 weeks
Excerpt: as §1
(§3) The cranial cruciate ligaments of right knees of all the experimental animals were torn to induce the instability of joints and medial meniscuses were simultaneously removed to induce osteoarthritis. […]
as §2

TNF-α = experiment: Measurement of TNF-α in serum by ELISA, osteoarthritis-induced rabbits; format: in vivo, NewZealand White Rabbits; details: autopsy at 12 weeks of administration in drinking water, arazyme 250 mg/kg, celecoxib 10 mg/kg/day, no statistical significance
Excerpt: as §1, §3, §2

[4] = after single oral administration up to 5000 mg/kg

B1: arazyme: enzyme purified from Aranicola proteolyticus HY-3 (KCTC 0268BP) culture; monomer of approximately 51.5 kDa; amino acid sequence SEQ ID No: 1 (protein, listed as Aranicola proteolyticus)
chain: MQSTKKAIEITESSLAAASSAYNAVDDLLHYHERGNGIQVNGKDSFSTEQAGLFITRENQTWNGYKVFGQPVKLTFSFPDYKFSSTNVAGDTGLSKFSAEQQQQAKLSLQSWSDVANITFTEVGAGQKANITFGNYSQDRPGHYDYDTQAYAFLPNTIYQGQNLGGQTWYNVNQSNVKHPASEDYGRQTFTHEIGHALGLSHPGDYNAGEGNPTYRDASYAEDTREFSLMSYWSETNTGGDNGGHYAAAPLLDDISAIQHLYGANQTTRTGDTVYGFNSNTGRDFLSTTSNPQKVIFAAWDAGGNDTFDFSGYTANQRINLNEKSFSDVGGLKGNVSIAAGVTIENAIGGSGNDVIVGNAANNVLKGGAGNDVLFGGGGADELWGGAGKDTFVFSAVSDSAPGASDWIKDFQKGIDKIDLSFFNQGAQGGDQIHFVDHFSGAAGEALLSYNASNNVSDLALNIGGHQAPDILVKIVGQVDVATDFIV
modifications: Zn binding site (192)..(192); Zn binding site (196)..(196); Zn binding site (323)..(323)
[1]; 24 hours after oral administration up to 5000 mg/kg
  microscopic findings in liver, heart, lung and pancreas: No pathological symptoms were observed
[1]; [4]
  general symptoms (activity, walking, temperament, convulsion): no abnormal symptoms
  outward appearance and functions (respiration, salivation, feces, vomiting): No abnormal changes were observed
[1]; single oral administration 0, 1250, 2500, 5000 mg/kg
  estimated LD50: at least 5000 mg/kg
[2]
  damage of joint cartilage, hematoxylin-eosin staining: most of the vertical fissures were formed into sites corresponding to the mid zones from the surface
  loss of collagen, azan staining: weak loss of collagen
  loss of proteoglycan, toluidine blue staining: proteoglycan was lost into the mid zone
[3]; arazyme 250 mg/kg, celecoxib 10 mg/kg/day
  cartilage damage of femoral joint surface, visual observation: less cartilage damage was generally shown than in the negative control group
[3]; positive control group compared with test material group
  lesions of tibia joint surface, visual observation: generally similar lesions were observed in the groups
TNF-α
  expression of TNF-α in serum compared with negative control group: at a lower level than the negative control group
